Drawing on publication PMC2408645, this text covers beta-galactosidase activity, early and beta-galactosidase activity, late for 4 substances.

Like-named read-outs stand apart in the source and are kept apart here.

Experiment in all cases: two-hybrid
In experiment [1] the target is NeuS (E. coli K1 (strain EV36)).
Experiment [2] has as its target KpsC (E. coli K1 (strain EV36)) (UniProt P42217).
In experiment [3] the target is NeuS (E. coli K1 (strain EV36)). The source holds these as a separate data set.
Experiment [4] concerns the target KpsC (E. coli K1 (strain EV36)) (UniProt P42217). This is another data set of the same source.

“KpsC (from UniProt P42217 1-675) (natural protein)”: the beta-galactosidase activity, early in experiment [1] turned out to be 420 Miller units; in experiment [2] it was 200 Miller units; in experiment [3] it was 560 Miller units; in experiment [4], 220 Miller units. For the same substance, the beta-galactosidase activity, late in experiment [1] was found to be 5540 Miller units; in experiment [2] it was 760 Miller units; in experiment [3], 4700 Miller units; in experiment [4] it was 540 Miller units.
In the case of KpsE (natural protein), the beta-galactosidase activity, early is 140 Miller units in experiment [1], 230 Miller units in experiment [2] and 65 Miller units in experiment [4]. For the same substance, the beta-galactosidase activity, late was 1050 Miller units in experiment [1], 1170 Miller units in experiment [2] and 120 Miller units in experiment [4].
Turning to NeuE (natural protein), the beta-galactosidase activity, early worked out at 16 Miller units in experiment [1] and 17 Miller units in experiment [3].
As for NeuS (enzyme), the beta-galactosidase activity, early was determined as 15 Miller units in experiment [2] and 18 Miller units in experiment [4].
